Patent publication US20240150451A1

Biological target: PHF-tau (paired helical filament tau; sarcosyl insoluble prep from human AD brain) (human) (UniProt P10636)
Test: SPR (ProteOn), mAb on PHF-tau, bivalent analyte fit; apparent affinity (avidity)

PHF-tau (paired helical filament tau; sarcosyl insoluble prep from human AD brain) (human), sequence (P10636 other isoform, or with tags, fused parts or gaps limits assumed): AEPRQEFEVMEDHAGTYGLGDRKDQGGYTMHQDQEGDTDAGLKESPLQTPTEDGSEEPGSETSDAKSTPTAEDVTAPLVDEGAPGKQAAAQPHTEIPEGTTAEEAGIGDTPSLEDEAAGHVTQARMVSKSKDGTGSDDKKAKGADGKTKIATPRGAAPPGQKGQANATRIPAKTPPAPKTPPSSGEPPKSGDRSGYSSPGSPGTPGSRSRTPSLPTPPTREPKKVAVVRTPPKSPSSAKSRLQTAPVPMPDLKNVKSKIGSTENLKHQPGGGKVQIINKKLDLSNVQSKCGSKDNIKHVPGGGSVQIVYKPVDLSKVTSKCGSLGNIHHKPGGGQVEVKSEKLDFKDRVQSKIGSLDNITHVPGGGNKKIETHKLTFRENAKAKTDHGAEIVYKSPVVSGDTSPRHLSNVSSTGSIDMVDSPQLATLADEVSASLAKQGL

For HT7 (reference mAb) (antibody), the Kd was 0.291 nM.
